T1: outer membrane usher FimD (Escherichia coli, UniProt P30130 46-878)
T1 sequence: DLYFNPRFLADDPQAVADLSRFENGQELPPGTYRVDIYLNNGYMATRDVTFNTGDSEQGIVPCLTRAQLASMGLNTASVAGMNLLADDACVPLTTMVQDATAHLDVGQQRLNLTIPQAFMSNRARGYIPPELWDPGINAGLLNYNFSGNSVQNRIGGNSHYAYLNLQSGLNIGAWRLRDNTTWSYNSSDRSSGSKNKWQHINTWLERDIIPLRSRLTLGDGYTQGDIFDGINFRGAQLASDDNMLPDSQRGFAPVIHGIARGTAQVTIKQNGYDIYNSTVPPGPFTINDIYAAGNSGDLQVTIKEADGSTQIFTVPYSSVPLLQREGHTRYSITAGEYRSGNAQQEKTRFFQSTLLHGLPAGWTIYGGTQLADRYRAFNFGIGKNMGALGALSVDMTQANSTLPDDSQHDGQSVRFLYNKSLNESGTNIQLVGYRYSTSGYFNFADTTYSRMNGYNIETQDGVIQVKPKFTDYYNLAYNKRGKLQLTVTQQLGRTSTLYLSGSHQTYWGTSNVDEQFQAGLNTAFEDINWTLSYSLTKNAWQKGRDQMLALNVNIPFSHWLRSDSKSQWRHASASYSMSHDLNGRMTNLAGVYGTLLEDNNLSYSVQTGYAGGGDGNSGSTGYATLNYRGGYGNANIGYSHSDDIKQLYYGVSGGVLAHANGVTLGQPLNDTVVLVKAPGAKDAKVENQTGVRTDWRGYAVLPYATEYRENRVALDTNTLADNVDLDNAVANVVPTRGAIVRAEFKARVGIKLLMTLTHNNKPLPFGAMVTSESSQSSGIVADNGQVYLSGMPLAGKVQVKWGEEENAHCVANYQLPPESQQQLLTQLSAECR


Biological target: T1, outer membrane usher FimD
Experiment: cryo-EM structure

Row | binding result | Binder
1 | binds | pilus subunit FimG (natural protein) ADVTITVNGKVVAKPCTVSTTNATVDLGDLYSFSLMSAGAASAWHDVALELTNCPVGTSRVTASFSGAADSTGYYKNQGTAQNIQLELQDDSGNTLNTGATKTVQVDDSSQSAHFPLQVRALTVNGGATQGTIQAVISITYTYS
2 | binds | FimC chaperone (natural protein) GVALGATRVIYPAGQKQEQLAVTNNDENSTYLIQSWVENADGVKDGRFIVTPPLFAMKGKKENTLRILDATNNQLPQDRESLFWMNVKAIPSMDKSKLTENTLQLAIISRIKLYYRPAKLALPPDQAAEKLRFRRSANSLTLINPTPYYLTVTELNAGTRVLENALVPPMGESTVKLPSDAGSNITYRTINDYGALTPKMTGVME

— PMC6309448 (Nature, 2018)
